From patent US20220380791A1

Target: M6P receptor (M6PR) (human)
Experiment: cell-based or functional assay

Agalsidase beta (Genzyme, Fabrazyme) (from UniProt P06280 32-429)
intracellular α-gal A activity of Fabry patient fibroblasts after 18 hours incubation with 10 µg/ml enzyme (fold of untreated cells): 134 fold
